Measured values published in article PMC7175128, “Rational Engineering of the Substrate Specificity of a Thermostable D-Hydantoinase (Dihydropyrimidinase)” (High-Throughput, 2020).

Experiments:
O=C1CCNC(=O)N1 = system: T1, O=C1CCNC(=O)N1; test: purified protein; assay type: biochemical, Geobacillus stearothermophilus; conditions: 0.1 M MOPS pH 8.0, 0.5 mM MnSO4, temperature of kinetics not stated (activity assays at 60 °C)
T1 construct: recombinant from pET-Hyd in E. coli BL21(DE3); 52 kDa; heat-treated, ultrafiltered, desalted

[1] = system: T2, O=C1NC(=O)C(Cc2c[nH]c3ccccc23)N1; test: purified protein; assay type: biochemical, Geobacillus stearothermophilus; conditions: 0.1 M MOPS pH 8.0, 0.5 mM MnSO4, temperature of kinetics not stated (activity assays at 60 °C)
T2 construct: recombinant from pET-Hyd in E. coli BL21(DE3); 52 kDa; heat-treated, ultrafiltered, desalted

## D-hydantoinase (dihydropyrimidinase) of G. stearothermophilus ATCC 31783 (Geobacillus stearothermophilus)
O=C1CCNC(=O)N1
  Km: 970 ± 220 µM
  kcat: 11.2 ± 0.7 s⁻¹
  kcat/Km: 11300 ± 2200 M⁻¹ s⁻¹

## D-hydantoinase (dihydropyrimidinase) of G. stearothermophilus ATCC 31783 (Geobacillus stearothermophilus; F159A)
[1]
  Km: 600 ± 580 µM
  kcat: 4.16 ± 0.60 s⁻¹
  kcat/Km: 6890 ± 5830 M⁻¹ s⁻¹
O=C1CCNC(=O)N1
  Km: 2890 ± 1270 µM
  kcat: 21.8 ± 2.6 s⁻¹
  kcat/Km: 7530 ± 2500 M⁻¹ s⁻¹

## D-hydantoinase (dihydropyrimidinase) of G. stearothermophilus ATCC 31783 (Geobacillus stearothermophilus; F159A/W287A)
[1]
  Km: 4300 ± 400 µM
  kcat: 12.5 ± 0.50 s⁻¹
  kcat/Km: 2900 ± 170 M⁻¹ s⁻¹
O=C1CCNC(=O)N1
  Km: 5610 ± 2320 µM
  kcat: 6.16 ± 1 s⁻¹
  kcat/Km: 1100 ± 300 M⁻¹ s⁻¹

## D-hydantoinase (dihydropyrimidinase) of G. stearothermophilus ATCC 31783 (Geobacillus stearothermophilus; I190A)
O=C1CCNC(=O)N1
  Km: 1120 ± 610 µM
  kcat: 7.99 ± 0.9 s⁻¹
  kcat/Km: 7090 ± 3200 M⁻¹ s⁻¹

## D-hydantoinase (dihydropyrimidinase) of G. stearothermophilus ATCC 31783 (Geobacillus stearothermophilus; W287A)
[1]
  Km: 1660 ± 850 µM
  kcat: 6.83 ± 0.97 s⁻¹
  kcat/Km: 4130 ± 1630 M⁻¹ s⁻¹
O=C1CCNC(=O)N1
  Km: 430 ± 130 µM
  kcat: 2.76 ± 0.17 s⁻¹
  kcat/Km: 6530 ± 1830 M⁻¹ s⁻¹
